Values quoted from earlier work as cited in PMC8031367.

Molecular target: Cys403 (UniProt position 403, RPVIHCRAGVG)
Experiment: chemical modification

In the case of “YopH (Yersinia protein tyrosine phosphatase) (Yersinia pestis (as stated for YopH in this article; the title of the cited source, ref 59, says only 'Yersinia'))”, the pKa is given as 4.67.
